Source: publication PMC4826039

Target: bovine brain tubulin (alpha-beta heterodimer), polymerized into taxol-stabilized microtubules (bovine) (UniProt Q6B856)
Experiment: negative stain electron microscopy

Substance | percent of microtubules with rings
KLP10A MD K350A (from UniProt Q960Z0 279-615) (domain or fragment) | < 10%
KLP10A MD K399A (from UniProt Q960Z0 279-615) (domain or fragment) | < 10%
